Measured values taken from the supplement of paper PMC6755084.

Tested on: F1*sub RNA substrate (template-directed ligation)
Test: fraction ligated after 30 min (ligated reads / total reads); higher = more ligase activity; sequences stand for … in GAGACCGCAACTGAAAAGTTGT…AGTTCTGCACGTAGAAGCAAAAGGC
Conditions: 42 °C
How it was run: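 Oligo-pool templates of ligase ribozyme variants were PCR-amplified, T7-transcribed and gel-purified. Ligated and unligated bands were gel-separated, reverse transcribed with barcoded primers, and MiSeq-sequenced; core bases were filtered at quality ≥20. Fraction ligated per variant was ligated reads over total reads.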

“TATCACTGTCGTAAGCACTTGGATGGGTTGA [3d1411]” was tested, and the fraction ligated was 0.745.
With “TATCACTGTCGTAAGCACTTTGATGGGTTGA [3d1412]” the fraction ligated was 0.686.
“TATCACTGTCGTAAGCACTTTGGAGGGTTGA [3d1414]” gave a fraction ligated of 0.0753.
“TATCACTGTCGTAAGCACTTTGGATGGGTTA [3d1416]” gave a fraction ligated of 0.752.
In the case of “TATCACTGTCGTAAGCACTTTGGATGGGTTG [3d1417]”, the fraction ligated is reported as 0.816.
Work on “TATCACTGTCGTAAGCACTTTGGATGGTTGA [3d1415]” yielded a fraction ligated of 0.175.
For “TATCACTGTCGTAAGCACTTTGGTGGGTTGA [3d1413]”, the fraction ligated was 0.11.
Work on “TATCACTGTCGTAAGCATTTGGATGGGTTGA [3d1410]” yielded a fraction ligated of 0.797.
“TATCACTGTCGTAAGCCTTTGGATGGGTTGA [3d1409]” was tested, and the fraction ligated was 0.815.
“TATCACTGTCGTAGAACTTTGGATGGGTTGA [3d1388]” gave a fraction ligated of 0.886.
“TATCACTGTCGTAGACACTTGGATGGGTTGA [3d1391]” gave a fraction ligated of 0.799.
For “TATCACTGTCGTAGACACTTTGATGGGTTGA [3d1392]”, the fraction ligated was 0.787.
“TATCACTGTCGTAGACACTTTGGAGGGTTGA [3d1394]” gave a fraction ligated of 0.13.
“TATCACTGTCGTAGACACTTTGGATGGGTTA [3d1396]” gave a fraction ligated of 0.791.
Work on “TATCACTGTCGTAGACACTTTGGATGGGTTG [3d1397]” yielded a fraction ligated of 0.811.
Sequence “TATCACTGTCGTAGACACTTTGGATGGGTTGA [2d134]” has a fraction ligated of 0.861.
“TATCACTGTCGTAGACACTTTGGATGGTTGA [3d1395]” gave a fraction ligated of 0.409.
For “TATCACTGTCGTAGACACTTTGGTGGGTTGA [3d1393]”, the fraction ligated was 0.499.
In the case of “TATCACTGTCGTAGACATTTGGATGGGTTGA [3d1390]”, the fraction ligated is reported as 0.864.
In the case of “TATCACTGTCGTAGACCTTTGGATGGGTTGA [3d1389]”, the fraction ligated is reported as 0.837.
Work on “TATCACTGTCGTAGCACTTTGGATGGGTTGA [3d1387]” yielded a fraction ligated of 0.881.
“TATCACTGTCGTGACACTTTGGATGGGTTGA [3d1385]” showed a fraction ligated of 0.854.
Work on “TATCACTGTCTAAACACTTTGGATGGGTTGA [3d1360]” yielded a fraction ligated of 0.816.
For “TATCACTGTCTAAGAACTTTGGATGGGTTGA [3d1362]”, the fraction ligated was 0.849.
Sequence “TATCACTGTCTAAGACACTTGGATGGGTTGA [3d1365]” has a fraction ligated of 0.789.
With “TATCACTGTCTAAGACACTTTGATGGGTTGA [3d1366]” the fraction ligated was 0.77.
“TATCACTGTCTAAGACACTTTGGAGGGTTGA [3d1368]” showed a fraction ligated of 0.102.
Sequence “TATCACTGTCTAAGACACTTTGGATGGGTTA [3d1370]” has a fraction ligated of 0.762.
“TATCACTGTCTAAGACACTTTGGATGGGTTG [3d1371]” showed a fraction ligated of 0.8.
For “TATCACTGTCTAAGACACTTTGGATGGGTTGA [2d132]”, the fraction ligated was 0.818.
Work on “TATCACTGTCTAAGACACTTTGGATGGTTGA [3d1369]” yielded a fraction ligated of 0.239.
With “TATCACTGTCTAAGACACTTTGGTGGGTTGA [3d1367]” the fraction ligated was 0.34.
“TATCACTGTCTAAGACATTTGGATGGGTTGA [3d1364]” was tested, and the fraction ligated was 0.803.
For “TATCACTGTCTAAGACCTTTGGATGGGTTGA [3d1363]”, the fraction ligated was 0.795.
With “TATCACTGTCTAAGCACTTTGGATGGGTTGA [3d1361]” the fraction ligated was 0.771.
“TATCACTGTCTAGACACTTTGGATGGGTTGA [3d1359]” showed a fraction ligated of 0.822.
For “TATCACTGTGAAGACACTTTGGATGGGTTGA [3d1344]”, the fraction ligated was 0.863.
With “TATCACTGTGTAAACACTTTGGATGGGTTGA [3d1346]” the fraction ligated was 0.845.
“TATCACTGTGTAAGAACTTTGGATGGGTTGA [3d1348]” was tested, and the fraction ligated was 0.882.
“TATCACTGTGTAAGACACTTGGATGGGTTGA [3d1351]” gave a fraction ligated of 0.821.
“TATCACTGTGTAAGACACTTTGATGGGTTGA [3d1352]” showed a fraction ligated of 0.355.
“TATCACTGTGTAAGACACTTTGGAGGGTTGA [3d1354]” gave a fraction ligated of 0.0274.
In the case of “TATCACTGTGTAAGACACTTTGGATGGGTTA [3d1356]”, the fraction ligated is reported as 0.823.
“TATCACTGTGTAAGACACTTTGGATGGGTTG [3d1357]” showed a fraction ligated of 0.843.
“TATCACTGTGTAAGACACTTTGGATGGGTTGA [2d131]” was tested, and the fraction ligated was 0.887.
“TATCACTGTGTAAGACACTTTGGATGGTTGA [3d1355]” was tested, and the fraction ligated was 0.216.
For “TATCACTGTGTAAGACACTTTGGTGGGTTGA [3d1353]”, the fraction ligated was 0.0456.
In the case of “TATCACTGTGTAAGACATTTGGATGGGTTGA [3d1350]”, the fraction ligated is reported as 0.849.
“TATCACTGTGTAAGACCTTTGGATGGGTTGA [3d1349]” gave a fraction ligated of 0.889.
“TATCACTGTGTAAGCACTTTGGATGGGTTGA [3d1347]” gave a fraction ligated of 0.878.
For “TATCACTGTGTAGACACTTTGGATGGGTTGA [3d1345]”, the fraction ligated was 0.886.
“TATCACTGTTAAGACACTTTGGATGGGTTGA [3d1343]” showed a fraction ligated of 0.828.
For “TATCACTTCGAAGACACTTTGGATGGGTTGA [3d1313]”, the fraction ligated was 0.803.
Work on “TATCACTTCGTAAACACTTTGGATGGGTTGA [3d1315]” yielded a fraction ligated of 0.792.
In the case of “TATCACTTCGTAAGAACTTTGGATGGGTTGA [3d1317]”, the fraction ligated is reported as 0.868.
“TATCACTTCGTAAGACACTTGGATGGGTTGA [3d1320]” was tested, and the fraction ligated was 0.796.
Sequence “TATCACTTCGTAAGACACTTTGATGGGTTGA [3d1321]” has a fraction ligated of 0.795.
For “TATCACTTCGTAAGACACTTTGGAGGGTTGA [3d1323]”, the fraction ligated was 0.0267.
Sequence “TATCACTTCGTAAGACACTTTGGATGGGTTA [3d1325]” has a fraction ligated of 0.706.
Work on “TATCACTTCGTAAGACACTTTGGATGGGTTG [3d1326]” yielded a fraction ligated of 0.795.
For “TATCACTTCGTAAGACACTTTGGATGGGTTGA [2d129]”, the fraction ligated was 0.825.
For “TATCACTTCGTAAGACACTTTGGATGGTTGA [3d1324]”, the fraction ligated was 0.122.
With “TATCACTTCGTAAGACACTTTGGTGGGTTGA [3d1322]” the fraction ligated was 0.085.
For “TATCACTTCGTAAGACATTTGGATGGGTTGA [3d1319]”, the fraction ligated was 0.84.
Sequence “TATCACTTCGTAAGACCTTTGGATGGGTTGA [3d1318]” has a fraction ligated of 0.802.
Sequence “TATCACTTCGTAAGCACTTTGGATGGGTTGA [3d1316]” has a fraction ligated of 0.797.
In the case of “TATCACTTCGTAGACACTTTGGATGGGTTGA [3d1314]”, the fraction ligated is reported as 0.783.
“TATCACTTCTAAGACACTTTGGATGGGTTGA [3d1312]” gave a fraction ligated of 0.774.
“TATCACTTGCAAGACACTTTGGATGGGTTGA [3d1599]” showed a fraction ligated of 0.798.
“TATCACTTGCGAAACACTTTGGATGGGTTGA [3d1614]” was tested, and the fraction ligated was 0.819.
“TATCACTTGCGAAGAACTTTGGATGGGTTGA [3d1616]” gave a fraction ligated of 0.842.
With “TATCACTTGCGAAGACACTTGGATGGGTTGA [3d1619]” the fraction ligated was 0.785.
Sequence “TATCACTTGCGAAGACACTTTGATGGGTTGA [3d1620]” has a fraction ligated of 0.77.
“TATCACTTGCGAAGACACTTTGGAGGGTTGA [3d1622]” showed a fraction ligated of 0.105.
“TATCACTTGCGAAGACACTTTGGATGGGTTA [3d1624]” gave a fraction ligated of 0.733.
Work on “TATCACTTGCGAAGACACTTTGGATGGGTTG [3d1625]” yielded a fraction ligated of 0.824.
“TATCACTTGCGAAGACACTTTGGATGGGTTGA [2d165]” showed a fraction ligated of 0.835.
With “TATCACTTGCGAAGACACTTTGGATGGTTGA [3d1623]” the fraction ligated was 0.248.
“TATCACTTGCGAAGACACTTTGGTGGGTTGA [3d1621]” showed a fraction ligated of 0.0968.
“TATCACTTGCGAAGACATTTGGATGGGTTGA [3d1618]” gave a fraction ligated of 0.814.
Work on “TATCACTTGCGAAGACCTTTGGATGGGTTGA [3d1617]” yielded a fraction ligated of 0.779.
“TATCACTTGCGAAGCACTTTGGATGGGTTGA [3d1615]” was tested, and the fraction ligated was 0.817.
Sequence “TATCACTTGCGAGACACTTTGGATGGGTTGA [3d1613]” has a fraction ligated of 0.821.
In the case of “TATCACTTGCGTAAAACTTTGGATGGGTTGA [3d1639]”, the fraction ligated is reported as 0.858.
Sequence “TATCACTTGCGTAAACACTTGGATGGGTTGA [3d1642]” has a fraction ligated of 0.802.
“TATCACTTGCGTAAACACTTTGATGGGTTGA [3d1643]” gave a fraction ligated of 0.768.
In the case of “TATCACTTGCGTAAACACTTTGGAGGGTTGA [3d1645]”, the fraction ligated is reported as 0.0516.
Sequence “TATCACTTGCGTAAACACTTTGGATGGGTTA [3d1647]” has a fraction ligated of 0.777.
“TATCACTTGCGTAAACACTTTGGATGGGTTG [3d1648]” gave a fraction ligated of 0.795.
“TATCACTTGCGTAAACACTTTGGATGGTTGA [3d1646]” showed a fraction ligated of 0.149.
With “TATCACTTGCGTAAACACTTTGGTGGGTTGA [3d1644]” the fraction ligated was 0.0539.
In the case of “TATCACTTGCGTAAACATTTGGATGGGTTGA [3d1641]”, the fraction ligated is reported as 0.822.
For “TATCACTTGCGTAAACCTTTGGATGGGTTGA [3d1640]”, the fraction ligated was 0.821.
In the case of “TATCACTTGCGTAACACTTTGGATGGGTTGA [3d1627]”, the fraction ligated is reported as 0.786.
Sequence “TATCACTTGCGTAAGAACTTGGATGGGTTGA [3d1660]” has a fraction ligated of 0.827.
“TATCACTTGCGTAAGAACTTTGATGGGTTGA [3d1661]” gave a fraction ligated of 0.853.
Work on “TATCACTTGCGTAAGAACTTTGGAGGGTTGA [3d1663]” yielded a fraction ligated of 0.0542.
For “TATCACTTGCGTAAGAACTTTGGATGGGTTA [3d1665]”, the fraction ligated was 0.604.
In the case of “TATCACTTGCGTAAGAACTTTGGATGGGTTG [3d1666]”, the fraction ligated is reported as 0.833.
For “TATCACTTGCGTAAGAACTTTGGATGGTTGA [3d1664]”, the fraction ligated was 0.0836.
Work on “TATCACTTGCGTAAGAACTTTGGTGGGTTGA [3d1662]” yielded a fraction ligated of 0.0953.
Sequence “TATCACTTGCGTAAGAATTTGGATGGGTTGA [3d1659]” has a fraction ligated of 0.835.
“TATCACTTGCGTAAGACACTGGATGGGTTGA [3d1681]” gave a fraction ligated of 0.799.
“TATCACTTGCGTAAGACACTTGATGGGTTGA [3d1682]” showed a fraction ligated of 0.747.
Work on “TATCACTTGCGTAAGACACTTGGAGGGTTGA [3d1684]” yielded a fraction ligated of 0.0856.
“TATCACTTGCGTAAGACACTTGGATGGGTTA [3d1686]” was tested, and the fraction ligated was 0.558.
With “TATCACTTGCGTAAGACACTTGGATGGGTTG [3d1687]” the fraction ligated was 0.796.
“TATCACTTGCGTAAGACACTTGGATGGTTGA [3d1685]” gave a fraction ligated of 0.152.
“TATCACTTGCGTAAGACACTTGGTGGGTTGA [3d1683]” was tested, and the fraction ligated was 0.139.
“TATCACTTGCGTAAGACACTTTATGGGTTGA [3d1688]” gave a fraction ligated of 0.12.
Sequence “TATCACTTGCGTAAGACACTTTGAGGGTTGA [3d1690]” has a fraction ligated of 0.0844.
